Columns and labels:
mCherry-U2AF35, Q01081 [1] = target: T1, mCherry-U2AF35, Q01081; assay: single-molecule photobleaching step counting (TIRF microscopy); nuclear extract in splicing conditions, no exogenous pre-mRNA, ATP depleted (−ATP), in the presence of ribonuclease; diluted and applied to cover slips; labeled protein spots bleaching in one or two steps; details: remark: other sources report otherwise
T1 chain: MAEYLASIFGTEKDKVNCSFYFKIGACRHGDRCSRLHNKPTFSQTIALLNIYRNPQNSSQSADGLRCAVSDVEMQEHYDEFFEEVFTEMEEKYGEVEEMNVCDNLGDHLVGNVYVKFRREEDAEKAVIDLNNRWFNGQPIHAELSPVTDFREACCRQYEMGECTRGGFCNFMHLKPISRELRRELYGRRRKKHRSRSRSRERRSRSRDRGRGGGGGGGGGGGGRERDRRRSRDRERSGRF

mCherry-U2AF35, Q01081 [2] = target: T1, mCherry-U2AF35, Q01081; assay: single-molecule photobleaching step counting (TIRF microscopy); nuclear extract in splicing conditions, no exogenous pre-mRNA, with ATP (+ATP), in the presence of ribonuclease; diluted and applied to cover slips; labeled protein spots bleaching in one or two steps; details: remark: other sources report otherwise

molecules bleaching in 1 step (of 2 versus 1 steps), −ATP (mCherry-U2AF35, Q01081 [1]): 189 molecules | molecules bleaching in 2 steps (of 2 versus 1 steps), −ATP (mCherry-U2AF35, Q01081 [1]): 33 molecules | molecules bleaching in 1 step (of 2 versus 1 steps), +ATP (mCherry-U2AF35, Q01081 [2]): 218 molecules | molecules bleaching in 2 steps (of 2 versus 1 steps), +ATP (mCherry-U2AF35, Q01081 [2]): 21 molecules
B1: mCherry-U2AF35, Q01081 1-240 (natural protein)
chain: T1 chain

From PMC5389562
